For experiment [1], the target named is T1, CR-Fc (UniProt P13385 31-169).
T1 construct: not shown: Fc part; not described
T1 sequence (looked up): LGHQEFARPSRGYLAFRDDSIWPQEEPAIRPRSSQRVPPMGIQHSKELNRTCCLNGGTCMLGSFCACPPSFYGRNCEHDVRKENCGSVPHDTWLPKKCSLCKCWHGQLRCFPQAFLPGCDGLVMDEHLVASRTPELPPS
Description: ELISA, ligand coated on the plate, CR-Fc detected with anti-Fc-alkaline phosphatase. As for the experimental part:
We discovered that Cripto binds directly to Activin B. We coated ELISA plates with purified Activin B, Activin A, TGFβ1, GDNF or BMP2 and incubated with CR-Fc. We then added anti-Fc antibody conjugated to alkaline phosphatase and monitored binding by adding an alkaline phosphatase substrate and developing. We observed that CR-Fc bound to wells containing Activin B, but not to Activin A or the other ligands (FIG. 8). In addition, we pre-incubated CR-Fc with Activin A or B in solution before adding to an Activin B coated plate and observed that only Activin B inhibited binding (FIG. 9).
For orientation: In an ELISA, binding on a coated surface is turned into a signal by an enzyme label.

For experiment [2], the target named is T2, LTβR-Fc (UniProt P36941 31-227).
T2 construct: Control protein on the Biacore chip; also called LT-beta receptor-Fc; control LTβR-Fc protein; not shown: Fc part; not described
Description: Biacore, Fc fusion protein immobilized on the chip. An excerpt:
We also analyzed the Cripto-Activin B interaction using Biacore. We discovered that Activin B directly binds CR-Fc immobilized on a Biacore chip with a high intensity, but not to a control LTβR-Fc protein (FIG. 10). We also observed that Activin A binding to CR-Fc was negligible.

Experiment [3] deals with T1, CR-Fc. Description: Biacore, competition format in solution. In general terms: In SPR one partner is held on a chip, and binding of the other changes the refractive index at the surface.

T2 sequence (P36941 31-227): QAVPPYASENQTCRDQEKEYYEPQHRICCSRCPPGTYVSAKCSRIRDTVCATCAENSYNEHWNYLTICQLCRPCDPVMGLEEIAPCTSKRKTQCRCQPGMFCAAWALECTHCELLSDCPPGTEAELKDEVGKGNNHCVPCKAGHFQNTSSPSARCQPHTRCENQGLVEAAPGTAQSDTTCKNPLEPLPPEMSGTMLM

B1: Activin A (ligand, UniProt P08476 311-426, looked up)
chain: GLECDGKVNICCKKQFFVSFKDIGWNDWIIAPSGYHANYCEGECPSHIAGTSGSSLSFHSTVINHYRMRGHSPFANLKSCCVPTKLRPMSMLYYDDGQNIIKKDIQNMIVEECGCS
As for B1, in experiment [1], the binding result was “no binding”.

B2: GDNF (ligand, UniProt P39905 78-211, looked up)
chain: SPDKQMAVLPRRERNRQAAAANPENSRGKGRRGQRGKNRGCVLTAIHLNVTDLGLGYETKEELIFRYCSGSCDAAETTYDKILKNLSRNRRLVSDKVGQACCRPIAFDDDLSFLDDNLVYHILRKHSAKRCGCI
In the case of B2, the binding result in experiment [1] is reported as “no binding”.

B3: Activin B (ligand, UniProt P09529 293-407, looked up)
chain: GLECDGRTNLCCRQQFFIDFRLIGWNDWIIAPTGYYGNYCEGSCPAYLAGVPGSASSFHTAVVNQYRMRGLNPGTVNSCCIPTKLSTMSMLYFDDEYNIVKRDVPNMIVEECGCA
As for B3, the binding result in experiment [2] is on record as “no binding”. For the same molecule, the Kd (in general, the concentration at which binding is half-saturated) in experiment [3] is ~1 nM.

B4: BMP2 (ligand, UniProt P12643 283-396, looked up)
chain: QAKHKQRKRLKSSCKRHPLYVDFSDVGWNDWIVAPPGYHAFYCHGECPFPLADHLNSTNHAIVQTLVNSVNSKIPKACCVPTELSAISMLYLDENEKVVLKNYQDMVVEGCGCR
With B4, in experiment [1], the binding result was “no binding”.

For the origin of these results see patent publication US20050255117A1 (Biogen, published 2005).
